Data from patent publication US7414113B2, “Antibody that specifically binds to Candida kefyr Cytosine deaminase” (Onyx Pharmaceuticals, Inc., priority 2002, dated 2008).
Entries after “also recorded” stand apart in the source; their conditions may differ.

What was measured:
[1] = system: HEK 293 cells; assay: Expression of CD constructs, anti-FLAG Western blot of cell lysate; type: cell-based, Human; details: transiently transfected HEK 293 cells
Excerpt: Human embryonic kidney cells (HEK 293 cells) were transiently transfected with one of these constructs: CK-CD-FLAG, CK-CD, E-CD-FLAG, E-CD or vector alone (pCMV-tag4C). […] Cells co-transfected with a construct and a GFP containing plasmid indicated approximately equivalent levels of transfection.
The experimental details are as follows: 293 cells in 10 cm dishes were transfected with 10 or 15 ÿg of CD constructs using FuGene® 6 (ROCHE™) at a DNA/FuGene® ratio of 1:3. No carrier DNA was used. Cell lysates were collected in 1 ml of lysis buffer (20 mM Tris-Cl, pH8, 150 mM NaCl, 1% Triton X-100) after 48 hours by three freeze/thaw cycles using dry ice for 10 minutes and room temperature for 10 minutes.
30 μl of cell lysate was separated by 12% SDS-PAGE, transferred to membrane and then Western blotted with anti-flag monoclonal antibody at a dilution of 1:5000 (SIGMA™). The membranes were incubated with HRP conjugated goat-anti-mouse secondary antibody (1:10000, AMERSHAM™) and the signal visualized with an ECL system (AMERSHAM™). […] Similar results were obtained (not shown) when the cells were transfected with 2 μg of each DNA construct. Experiments are planned to test a humanized C. kefyr gene and it is expected that the humanized gene will improve the expression levels.
Because the bacterial protein was more strongly expressed than the yeast protein, an attempt was made to compare the levels for the amount of expression of the two clones. In a second Western blot, 30 μl of CK-CD-FLAG was compared against increasing amounts of E-CD-FLAG. […] In the following experiments, this ratio of cell lysates is used. The presence of a fainter band at about 38 KD may indicate that some portion of the CK-CD protein dimerizes.

[2] = 5FC to 5FU conversion assay at different temperatures (14C, TLC); type: biochemical; details: for 5FC to 5FU conversion activity: cell lysate, 2 hour assay, FIG. 10
Procedure: (§1) The plate was then dried and visualized by autoradiography.
In the next experiment, we tested the activity of each enzyme against 5FC. The experiment was performed as described above, but using 5FC in place of cytosine. Further, this experiment was combined with a temperature optimization study and was performed at 4 different temperatures. […] Further, a variant with increased stability can be isolated by screening yeast grown at 37° C., as described in the Examples below.

[3] = reference 16, cited from earlier work
[4] = cited from earlier work
[5] = system: transfected cells
Procedure: Cytotoxicity assay—transfected cells were seeded at a density of 1×10^3 cells/well in a 96-well microtiterplate containing 100 μl of culture medium. A set of sterile stock dilutions of the 10 mg/ml 5FC solution were prepared. One day later, increasing concentrations of 5FC was added to the wells, and a control well without the prodrug was included. After 5-7 days, the cells were washed with fresh medium and cytotoxicity was assessed by trypan blue exclusion, using a hemocytometer to quantify the results.

[6] = cell lysate, 37° C., 16 hour assay, FIG. 9; listed as C. kefyr CD protein
Procedure: The reaction mixtures were loaded onto a TLC plate (LK5DF SILICA GEL, Cat. No. 4856-821, WHATMAN™) and resolved with 1-butanol:H2O (85:15) for 3 hours. The plate was then dried and visualized by autoradiography.
Cell lysates were assayed for cytosine to uracil conversion at 37° C. in a 16 hour assay.

[7] = Activity of CD variants (conversion of 5FC to 5FU); type: biochemical; details: mutant tested, versus protein of SEQ ID NO: 2
Excerpt: “Fragments” refers to those polypeptides (or nucleic acid sequences encoding such polypeptides) retaining antigenicity, a structural domain, or an enzymatic activity of the full-length protein. The “enzymatic activity” of the CD protein is herein defined to be the conversion of 5FC to 5FU.
as §1
The specific variants listed in table 2 are synthesized by site specific mutagenesis of SEQ ID NO: 1 or SEQ ID NO: 3. […] Further, changes within the cytidine and deoxycytidylate deaminase zinc-binding region (grey box) are also expected to be less well tolerated than changes outside this region. These residues involve a change in charge as compared with the closest homolog and are in the binding region. Changes in these residues are expected to change function. Active variants are likely to be those that involve conservative changes in those residues not conserved in the 2 yeasts, particularly those outside the binding region.
Variants are expressed in E. coli and screened for activity using the assay described in example 3, or any suitable assay. Alternatively, random mutagenesis is performed and the products are similarly screened. In this manner, it will be possible to isolate variants with improved temperature stability at 37° C. and mutants with even better activity than that described herein.

B1: E-CD-FLAG: E. coli cytosine deaminase with FLAG tag (protein, UniProt P25524 2-427, looked up)
Cytosine deaminase: SNNALQTIINARLPGEEGLWQIHLQDGKISAIDAQSGVMPITENSLDAEQGLVIPPFVEPHIHLDTTQTAGQPNWNQSGTLFEGIERWAERKALLTHDDVKQRAWQTLKWQIANGIQHVRTHVDVSDATLTALKAMLEVKQEVAPWIDLQIVAFPQEGILSYPNGEALLEEALRLGADVVGAIPHFEFTREYGVESLHKTFALAQKYDRLIDVHCDEIDDEQSRFVETVAALAHHEGMGARVTASHTTAMHSYNGAYTSRLFRLLKMSGINFVANPLVNIHLQGRFDTYPKRRGITRVKEMLESGINVCFGHDDVFDPWYPLGTANMLQVLHMGLHVCQLMGYGQINDGLNLITHHSARTLNLQDYGIAAGNSANLIILPAENGFDALRRQVPVRYSVRGGKVIASTQPAQTTVYLEQPEAIDYKR
modifications: FLAG tag
expression level [1]: much more strongly expressed than the yeast protein
expression level ([1]; listed as E. coli CD-FLAG): expressed much more efficiently than Candida kefyr CD-FLAG

B2: E-CD: E. coli (bacterial) cytosine deaminase, 427 amino acids (protein, UniProt P25524 2-427, looked up)
Cytosine deaminase: SNNALQTIINARLPGEEGLWQIHLQDGKISAIDAQSGVMPITENSLDAEQGLVIPPFVEPHIHLDTTQTAGQPNWNQSGTLFEGIERWAERKALLTHDDVKQRAWQTLKWQIANGIQHVRTHVDVSDATLTALKAMLEVKQEVAPWIDLQIVAFPQEGILSYPNGEALLEEALRLGADVVGAIPHFEFTREYGVESLHKTFALAQKYDRLIDVHCDEIDDEQSRFVETVAALAHHEGMGARVTASHTTAMHSYNGAYTSRLFRLLKMSGINFVANPLVNIHLQGRFDTYPKRRGITRVKEMLESGINVCFGHDDVFDPWYPLGTANMLQVLHMGLHVCQLMGYGQINDGLNLITHHSARTLNLQDYGIAAGNSANLIILPAENGFDALRRQVPVRYSVRGGKVIASTQPAQTTVYLEQPEAIDYKR
5FU produced ([2]; 16 hours of reaction (not shown)): as much or more 5FU than the yeast protein
Activity % 5FU/5FC by 0.2 μg CD in 2 h [3]: ^1616.0 ± 0.8%
Km [3]: 17.9 mM
Vmax [3]: ^1611.7 ± 3.8 μM/min/μg enzyme

B3: S. cerevisiae FCY1: Wild type Saccharomyces cerevisiae CD protein, 158 amino acids (protein)
chain: MVTGGMASKWDQKGMDIAYEEAALGYKEGGVPIGGCLINNKDGSVLGRGHNMRFQKGSATLHGEISTLENCGRLEGKVYKDTTLYTTLSPCDMCTGAIIMYGIPRCVVGENVNFKSKGEKYLQTRGHEVVVVDDERCKKIMKQFIDERPQDWFEDIGE
Activity % 5FU/5FC by 0.2 μg CD in 2 h [3]: ^1677.9 ± 6.2%
Km [3]: 0.8 mM
Vmax [3]: ^1668.0 ± 12.0 μM/min/μg enzyme
T½ ([4]; measured, reference 16 (value in brackets)): (^161) HR
measured T1/2 ([4]; thermal instability, reference 16): 1 h

B4: CD-FUR1 fusion protein: Fusion of Candida kefyr CD and uracil phosphoribosyltransferase (FUR1) (protein)
chain: MAEWDQKGMDKAYEEAAIGYKEGGVPIGGCLIDNLTGEILGSGHNMRFQKGSPTLHGETSTLENAGRLKGSVYKHCTMYTTLSPCDMCTGAILLYGIGRVVIGENVNFKSPGEEYLTSRGVELKVVDDKRCIDIMKEFIEKRPEDWYEDIGEASEPFKNVYLLPQTNQLLGLYTIIRNKNTTRPDFIFYSDRIIRLLVEEGLNHLPVQKQIVETDTNENFEGVSFMGKICGVSIVRAGESMEQGLRDCCRSVRIGKILIQRDEETALPKLFYEKLPEDISERYVFLLDPMLATGGSAIMATEVLIKRGVKPERIYFLNLICSKEGIEKYHAAFPEVRIVTGALDRGLDENKYLVPGLGDFGDRYYCV
expected activity in cytotoxicity assay [5]: increased activity

B5: CK-CD: Wild type Candida kefyr cytosine deaminase protein, 152 amino acids, SEQ ID NO: 2 (protein)
chain: MAEWDQKGMDKAYEEAAIGYKEGGVPIGGCLIDNLTGEILGSGHNMRFQKGSPTLHGETSTLENAGRLKGSVYKHCTMYTTLSPCDMCTGAILLYGIGRVVIGENVNFKSPGEEYLTSRGVELKVVDDKRCIDIMKEFIEKRPEDWYEDIGE
expression level [1]: significantly lower expression levels than E. coli CD
substrate preference, 5FC versus cytosine [2]: 5FC is a better substrate for C. kefyr CD than is the natural substrate, cytosine
Activity % 5FU/5FC ([2]; by 45 ul cell extract, 2 h): ~50% by 45 ul
5FC to 5FU conversion activity [2]: much more active than CK-CD-FLAG; also recorded: more active against 5FC than the bacterial protein; also recorded: more active against 5FC than is the E. coli CD at 2 hours
5FC to 5FU conversion activity ([2]; listed as C. kefyr CD): much higher in converting 5FC to 5FU
5FC to 5FU conversion activity ([2]; listed as C. kefyr protein): sufficiently active at 37 °C
cytosine to uracil conversion activity [6]: far less active against cytosine than was the E. coli CD protein
increased cytotoxicity and bystander effect per unit dose of 5FC compared with the bacteria [5]: up to 10 fold

B6: CK-CD-FLAG: Candida kefyr CD with FLAG tag, with the D33E variation (protein)
chain: MAEWDQKGMDKAYEEAAIGYKEGGVPIGGCLIENLTGEILGSGHNMRFQKGSPTLHGETSTLENAGRLKGSVYKHCTMYTTLSPCDMCTGAILLYGIGRVVIGENVNFKSPGEEYLTSRGVELKVVDDKRCIDIMKEFIEKRPEDWYEDIGE
modifications: C-terminal FLAG tag
notes: Candida kefyr CD with FLAG tag, with the D33E variation
expression level [1]: about ten-fold less well expressed than the E-CD-FLAG
5FC to 5FU conversion activity [2]: more active against 5FC than the bacterial protein
Activity [7]: Mutant tested and has less activity
